In patent US20200283523A1 (WUXI BIOLOGICS IRELAND, published 2020):

Columns and labels:
human CD19 [1] = target: T1, human CD19 (human, UniProt P15391 20-556); assay: flow cytometry on Ramos cells
T1 construct: whole, on cells; also called CD19 on Ramos cells; CD19 on Raji cells
T1 sequence (looked up): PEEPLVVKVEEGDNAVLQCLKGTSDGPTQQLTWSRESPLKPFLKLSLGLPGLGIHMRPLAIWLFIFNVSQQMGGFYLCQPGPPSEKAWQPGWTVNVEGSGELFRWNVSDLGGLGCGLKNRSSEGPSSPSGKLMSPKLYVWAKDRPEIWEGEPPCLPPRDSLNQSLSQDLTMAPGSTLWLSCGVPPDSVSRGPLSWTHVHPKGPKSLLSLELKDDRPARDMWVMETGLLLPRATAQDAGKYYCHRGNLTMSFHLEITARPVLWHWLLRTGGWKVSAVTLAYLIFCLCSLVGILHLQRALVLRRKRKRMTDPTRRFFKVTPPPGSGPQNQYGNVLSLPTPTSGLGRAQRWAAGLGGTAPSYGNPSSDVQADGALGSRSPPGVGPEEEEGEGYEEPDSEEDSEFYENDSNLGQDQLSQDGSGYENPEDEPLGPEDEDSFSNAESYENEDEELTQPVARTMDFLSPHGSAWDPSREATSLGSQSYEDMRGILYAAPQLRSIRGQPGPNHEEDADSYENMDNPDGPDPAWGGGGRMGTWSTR

human CD3 = target: T2, human CD3 (human, UniProt P07766 23-207); assay: flow cytometry affinity on Jurkat cells, bound/free versus bound plot; Jurkat cells, CD3
T2 construct: whole, on cells; On cells CD3 stands as the full CD3/TCR complex; also called CD3 on Jurkat cells
Protocol: (§1) Binding affinity to CD3 and CD19 was determined by flow cytometry using Jurkat and Ramos cells, respectively. The cells were transferred in to 96-well U-bottom plates (BD) at a density of 5×10⁴ cells/well. Antibodies to be tested were 1:2-fold serially diluted in 1% 1×PBS/1% BSA and incubated with cells at 4° C. for 1 hr. Then, the plates were centrifuged at 1500 rpm for 4 mins and the supernatant discarded. The secondary antibody, Alexa647 conjugated goat anti-human IgG Fc (Jackson, Cat #109-605-098) or FITC conjugated goat anti-His (Bethyl, Cat # A190-113F) was added to re-suspended cells and incubated at 4° C. in the dark for 30 min. The cells were washed once and re-suspended in 100 μL 1×PBS/1% BSA. Fluorescence intensity was measured by flow cytometry (BD Canto II) and analyzed by FlowJo. Fluorescence intensity was converted to bound molecules/cell based on the quantitative beads (Quantum™ MESF Kits, Bangs Laboratories). KD was calculated by Graphpad Prism5.
(§2) The binding affinity of W3438-T3U4.E17-1.uIgG4.SP to human CD19 and CD3 was tested on Ramos and Jurkat cells by flow cytometry. The bound IgG/free IgG versus bound IgG was plotted in FIGS. 14A-14B.

FcγRI = FcγRI (UniProt P12314 16-288, limits assumed); assay: SPR (Biacore), receptor captured on anti-his chip, antibody injected, 1:1 Langmuir fit
Protocol: Antibody binding affinity to FcγRs was detected using Biacore T200 (or Biacore 8K). Each receptor was captured on an anti-his antibody immobilized CMS sensor chip (GE). Antibodies at different concentrations were injected over the sensor chip at a flow rate of 30 uL/min for an association phase of 60 s, followed by 60 s dissociation. The chip was then regenerated by 10 mM glycine (pH 1.5) after each binding cycle.
The sensorgrams of blank surface and buffer channel were subtracted from the test sensorgrams. The experimental data was fitted by 1:1 model using Langmiur analysis (for FcγRI) or steady state model (for other receptors). A molecular weight of 150 KDa was used to calculate the molar concentration of antibodies.

C1Q = target: T3, C1Q (UniProt P02745 23-245; P02746 28-253; P02747 29-245); assay: ELISA, antibody coated on the plate, C1q titrated (axis [C1q] nM), anti-human C1q-HRP detection
T3 construct: also called Clq
Protocol: ELISA Plates (Nunc) were coated with antibody samples at 3 μg/mL overnight at 4° C. After blocking and washing, C1q was gradient diluted starting from 600 μg/mL and incubated at room temperature for 2 hr. The plates were then washed and subsequently incubated with sheep anti-human C1q Ab-HRP for 1 hr. After washing, TMB substrate was added and the interaction was stopped by 2 M HCl. The absorbance at 450 nm was read using a microplate reader (Molecular Device).
The binding activity of antibodies to C1Q was tested by ELISA.

human CD19 [2] = target: T1, human CD19; assay: flow cytometry affinity on Ramos cells, bound/free versus bound plot; Ramos cells, CD19
Protocol: as §1, §2

human CD19 [3] = target: T1, human CD19; assay: cell-based or functional assay

Sequence of FcγRI (P12314 16-288 limits assumed): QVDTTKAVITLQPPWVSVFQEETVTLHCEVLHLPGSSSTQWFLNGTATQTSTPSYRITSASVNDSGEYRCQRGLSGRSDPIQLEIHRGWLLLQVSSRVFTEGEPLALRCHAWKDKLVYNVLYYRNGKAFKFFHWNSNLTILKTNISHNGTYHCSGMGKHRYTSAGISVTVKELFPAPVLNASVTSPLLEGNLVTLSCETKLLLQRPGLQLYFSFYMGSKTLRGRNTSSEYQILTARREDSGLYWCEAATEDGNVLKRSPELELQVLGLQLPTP
T3 sequence (P02745 23-245 limits assumed, chain 1 of 3): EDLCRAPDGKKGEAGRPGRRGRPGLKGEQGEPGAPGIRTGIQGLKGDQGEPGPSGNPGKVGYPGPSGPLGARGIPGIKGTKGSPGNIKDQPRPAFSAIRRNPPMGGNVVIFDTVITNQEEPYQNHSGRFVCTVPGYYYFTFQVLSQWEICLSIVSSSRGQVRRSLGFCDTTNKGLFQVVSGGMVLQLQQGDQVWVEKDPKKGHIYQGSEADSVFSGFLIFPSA
T3 sequence (P02746 28-253 limits assumed, chain 2 of 3): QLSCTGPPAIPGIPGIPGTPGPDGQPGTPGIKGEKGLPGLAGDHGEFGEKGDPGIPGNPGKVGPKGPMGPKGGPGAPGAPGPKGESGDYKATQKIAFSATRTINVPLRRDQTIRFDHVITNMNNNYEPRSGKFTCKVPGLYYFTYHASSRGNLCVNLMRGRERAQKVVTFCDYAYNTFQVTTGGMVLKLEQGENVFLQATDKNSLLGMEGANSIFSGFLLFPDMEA
T3 sequence (P02747 29-245 limits assumed, chain 3 of 3): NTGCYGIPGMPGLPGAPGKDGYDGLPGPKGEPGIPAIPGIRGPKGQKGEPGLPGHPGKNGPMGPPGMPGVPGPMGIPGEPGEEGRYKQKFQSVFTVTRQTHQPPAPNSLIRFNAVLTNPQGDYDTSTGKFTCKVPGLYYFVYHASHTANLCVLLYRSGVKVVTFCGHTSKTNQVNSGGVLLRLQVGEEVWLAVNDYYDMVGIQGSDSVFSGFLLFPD
T2 sequence (P07766 23-207): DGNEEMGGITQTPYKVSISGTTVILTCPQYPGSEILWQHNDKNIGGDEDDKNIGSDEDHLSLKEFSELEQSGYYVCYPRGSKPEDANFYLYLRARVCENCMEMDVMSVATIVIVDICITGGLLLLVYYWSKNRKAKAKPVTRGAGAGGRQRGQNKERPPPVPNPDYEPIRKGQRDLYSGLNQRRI

EC50 (human CD19 [1]): 15.6 nM
Kd (human CD3): 9 nM
Kd (FcγRI): 9.79 nM
binding result (C1Q): no binding (tested: about 1500 nM C1q)
Kd (human CD19 [2]): 23 nM
B1: W3438-T3U4.E17-1.uIgG4.SP (bispecific antibody)
light 1: DIVMTQSPDSLAVSLGERATINCKSSQSLLNSRTRKNYLAWYQQKPGQPPKLLIYWASTRQSGVPDRFSGSGSGTDFTLTISSLQAEDVAVYYCTQSHTLRTFGGGTKVEIKPDIQNPDPAVYQLRDSKSSDKSVCLFTDFDSQTQVSQSKDSDVYITDKCVLDMRSMDFKSNSAVAWSQKSDFACANAFQNSIIPEDTFFPSPESS
heavy 1: QVQLVQSGAEVKKPGSSVKVSCKASGFAFTDYYIHWVRQAPGQGLEWMGWISPGNVNTKYNENFKGRVTITADKSTSTAYMELSSLRSEDTAVYYCARDGYSLYYFDYWGQGTLVTVLEDLKNVFPPEVAVFEPSEAEISHTQKATLVCLATGFYPDHVELSWWVNGKEVHSGVCTDPQPLKEQPALQDSRYALSSRLRVSATFWQNPRNHFRCQVQFYGLSENDEWTQDRAKPVTQIVSAEAWGRYGPPCPPCPAPEFLGGPSVFLFPPKPKDTLMISRTPEVTCVVVDVSQEDPEVQFNWYVDGVEVHNAKTKPREEQFNSTYRVVSVLTVLHQDWLNGKEYKCKVSNKGLPSSIEKTISKAKGQPREPQVYTLPPCQEEMTKNQVSLWCLVKGFYPSDIAVEWESNGQPENNYKTTPPVLDSDGSFFLYSRLTVDKSRWQEGNVFSCSVMHEALHNHYTQKSLSLSLGK
light 2: DIQLTQSPSFLSASVGDRVTITCSASSTVNYMHWYQQKPGKAPKLLIYSTSNLASGVPSRFSGSGSGTEFTLTISSLQPEDFATYYCHQWSSYPYTFGQGTKLEIKRTVAAPSVFIFPPSDEQLKSGTASVVCLLNNFYPREAKVQWKVDNALQSGNSQESVTEQDSKDSTYSLSSTLTLSKADYEKHKVYACEVTHQGLSSPVTKSFNRGEC
heavy 2: QMQLVQSGPEVKKPGTSVKVSCKASGYAFTSYNMYWVRQARGQRLEWIGYIDPYNGDTTYNQKFKGRVTITRDMSTSTAYMELSSLRSEDTAVYYCLTTAYAMDYWGQGTLVTVSSASTKGPSVFPLAPCSRSTSESTAALGCLVKDYFPEPVTVSWNSGALTSGVHTFPAVLQSSGLYSLSSVVTVPSSSLGTKTYTCNVDHKPSNTKVDKRVESKYGPPCPPCPAPEFLGGPSVFLFPPKPKDTLMISRTPEVTCVVVDVSQEDPEVQFNWYVDGVEVHNAKTKPREEQFNSTYRVVSVLTVLHQDWLNGKEYKCKVSNKGLPSSIEKTISKAKGQPREPQVCTLPPSQEEMTKNQVSLSCAVKGFYPSDIAVEWESNGQPENNYKTTPPVLDSDGSFFLVSRLTVDKSRWQEGNVFSCSVMHEALHNHYTQKSLSLSLGK
notes: Bispecific, bivalent: one anti-CD3 arm with TCR constant domains and one native anti-CD19 Fab arm, IgG4 S228P Fc with knobs-into-holes; also called WBP3438; CD3×CD19 bispecific antibody; copies: 1 + 1 + 1 + 1
cytotoxic activity on Raji cells with CD8+ T cells, EC50 (human CD19 [3]): 15 nM
